The text below walks through data of FireProtDB (doi:10.1021/bi034721x).

Where “and” joins values, the source holds several entries; their conditions need not be identical. Equal entries are not always repeated.

The term Tm denotes the temperature at which the thermal transition is half complete.

B1: Parvalbumin alpha, P02625 (parent)
chain: MSMTDLLSAEDIKKAIGAFTAADSFDHKKFFQMVGLKKKSADDVKKVFHILDKDKSGFIEEDELGSILKGFSSDARDLSAKETKTLMAAGDKDGDGKIGVEEFSTLVAES

The variants in this data set derive from B1. The following applies: Rattus norvegicus, pH 7.4, Thermal, DSC, sodium phosphate 10 mM, NaCl 0.20 M, structure 1RTP, whole UniProt chain shown.

On to A22P H27P, for which the melting temperature (Tm) came out at 43.6 °C; the “change of melting temperature, mutant - wild type (higher = more stable)” value (“change of melting temperature, mutant” for short) was -2.2 °C; the “unfolding enthalpy (calorimetric)” value is 62 kcal/mol. Moreover, for the setting “45.8 °C”, the “ddG of mutation (higher = less stable)” value was 0.5 kcal/mol and the “heat capacity change of unfolding” value was determined as 1.4 kcal/mol/K.
On to A22P, for which the “unfolding enthalpy (calorimetric)” value is 52 kcal/mol and 63 kcal/mol. For the same variant, under “44.2 °C”, the “ddG of mutation (higher = less stable)” value is -0.95 kcal/mol and the “heat capacity change of unfolding” value was 1.4 kcal/mol/K. Where the note is “45.8 °C”, the “ddG of mutation (higher = less stable)” value was determined as 1.92 kcal/mol and the “heat capacity change of unfolding” value worked out at 1.4 kcal/mol/K.
Take A22P K81S: the Tm was found to be 47.8 °C; the “change of melting temperature, mutant” value was 2 °C; the “unfolding enthalpy (calorimetric)” value was 75 kcal/mol. Moreover, for the setting “45.8 °C”, the “ddG of mutation (higher = less stable)” value is -0.45 kcal/mol and the “heat capacity change of unfolding” value is 1.4 kcal/mol/K.
In the same order, the values of K81S are 44.5 °C, -1.3 °C, 71 kcal/mol, 0.29 kcal/mol and 1.4 kcal/mol/K.
On to H27P, for which the melting temperature (Tm) was 51.4 °C; the “change of melting temperature, mutant” value was 5.6 °C; the “unfolding enthalpy (calorimetric)” value came out at 80 kcal/mol. Besides, under “45.8 °C”, the “ddG of mutation (higher = less stable)” value is -1.25 kcal/mol and the “heat capacity change of unfolding” value stood at 1.4 kcal/mol/K.
